Our source for the β-arrestin2 recruitment to PK-tagged CXCR4 (PathHunter, C2C12 cells), potency of CXCL12 (pEC50), half-time of internalization of SNAP-tagged CXCR4 in HEK293A cells with 1 µM CXCL12 (constitutive: 22.1 min) and real-time internalization of N-terminally SNAP-tagged CXCR4 in HEK293A cells, CXCL12 0.1 nM to 1 µM, potency of CXCL12 (pEC50) values is publication PMC8115334.

Experiment [1] concerns the target Prolink (PK)-tagged CXC chemokine receptor 4 (CXCR4) (UniProt P61073).
For experiment [2] the target is unchanged. This is another data set of the same source.

Chain of UniProt P61073 (P61073 whole entry): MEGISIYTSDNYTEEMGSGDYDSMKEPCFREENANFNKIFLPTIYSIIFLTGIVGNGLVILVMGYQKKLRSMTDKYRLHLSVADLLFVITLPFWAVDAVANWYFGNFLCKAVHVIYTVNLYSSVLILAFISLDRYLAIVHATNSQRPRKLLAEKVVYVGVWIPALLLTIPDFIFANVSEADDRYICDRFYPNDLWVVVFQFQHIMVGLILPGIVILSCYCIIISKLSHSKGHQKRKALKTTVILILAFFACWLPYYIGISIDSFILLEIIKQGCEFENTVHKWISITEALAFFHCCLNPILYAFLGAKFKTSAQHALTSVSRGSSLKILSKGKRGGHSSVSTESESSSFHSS

In experiment [1], “CXC chemokine ligand 12 (CXCL12) (from UniProt P48061 22-93)” returned a β-arrestin2 recruitment to PK-tagged CXCR4 (PathHunter, C2C12 cells), potency of CXCL12 (pEC50) of 7.7 pEC50. Moreover, in experiment [2], the half-time of internalization of SNAP-tagged CXCR4 in HEK293A cells with 1 µM CXCL12 (constitutive: 22.1 min) amounted to 14.1 min and the real-time internalization of N-terminally SNAP-tagged CXCR4 in HEK293A cells, CXCL12 0.1 nM to 1 µM, potency of CXCL12 (pEC50) was 7.7 pEC50.
